These are literature values, as cited in article PMC11724285.

This series deals with NF-κB (subunit not stated).

With “GAUACUUGAAACUGUAAGGUUGGCGUAUA [NF-κB RNA aptamer (29 nt)]”, the Kd was 5 nM.
